Values belong to the binder of their own block, whether it stands above or below them.
Columns and labels:
[1] = target: T1, Mycx2-hLepR(ecto)-GPI anchored, on HEK293/hLEPR-GPI cells (human, UniProt P48357 22-839, GPI anchor at the C-terminus); test: FACS, 70 nM Ab, HEK293/hLEPR-GPI
T1 construct: also called HEK293/Mycx2-hLepR(ecto)-GPI; not shown: N-terminal myc-myc tag
T1 sequence: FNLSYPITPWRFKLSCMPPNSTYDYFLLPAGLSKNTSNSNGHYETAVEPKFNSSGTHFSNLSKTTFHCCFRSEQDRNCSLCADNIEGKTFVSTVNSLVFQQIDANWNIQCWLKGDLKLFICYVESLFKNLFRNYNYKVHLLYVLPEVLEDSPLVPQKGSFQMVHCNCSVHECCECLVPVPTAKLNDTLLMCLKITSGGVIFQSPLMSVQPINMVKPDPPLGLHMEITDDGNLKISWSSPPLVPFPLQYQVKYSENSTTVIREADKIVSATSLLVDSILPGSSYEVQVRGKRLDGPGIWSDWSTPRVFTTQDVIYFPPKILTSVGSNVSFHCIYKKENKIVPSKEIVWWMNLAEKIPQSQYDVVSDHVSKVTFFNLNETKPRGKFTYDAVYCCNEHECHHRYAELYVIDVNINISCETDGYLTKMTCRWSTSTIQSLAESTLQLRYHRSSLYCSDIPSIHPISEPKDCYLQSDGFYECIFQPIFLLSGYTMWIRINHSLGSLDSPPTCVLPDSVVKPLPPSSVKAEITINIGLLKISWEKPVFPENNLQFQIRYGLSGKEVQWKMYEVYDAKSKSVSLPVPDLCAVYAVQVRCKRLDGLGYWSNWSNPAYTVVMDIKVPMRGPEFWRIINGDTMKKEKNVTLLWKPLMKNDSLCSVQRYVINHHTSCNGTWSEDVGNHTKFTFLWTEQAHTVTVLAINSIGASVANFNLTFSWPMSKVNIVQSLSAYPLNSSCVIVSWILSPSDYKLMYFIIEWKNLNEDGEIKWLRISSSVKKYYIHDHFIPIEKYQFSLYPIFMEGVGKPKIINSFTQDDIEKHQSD

[2] = target: T2, full length human LEPR (amino acids 1-1165 of P48357, Isoform B), on cells (human, UniProt P48357 22-1165); test: FACS, 70 nM Ab, HEK293/Stat3-luc/hLEPR-FL
T2 construct: also called hLEPR-FL; HEK293/Stat3-luc/hLEPR-FL
T2 sequence: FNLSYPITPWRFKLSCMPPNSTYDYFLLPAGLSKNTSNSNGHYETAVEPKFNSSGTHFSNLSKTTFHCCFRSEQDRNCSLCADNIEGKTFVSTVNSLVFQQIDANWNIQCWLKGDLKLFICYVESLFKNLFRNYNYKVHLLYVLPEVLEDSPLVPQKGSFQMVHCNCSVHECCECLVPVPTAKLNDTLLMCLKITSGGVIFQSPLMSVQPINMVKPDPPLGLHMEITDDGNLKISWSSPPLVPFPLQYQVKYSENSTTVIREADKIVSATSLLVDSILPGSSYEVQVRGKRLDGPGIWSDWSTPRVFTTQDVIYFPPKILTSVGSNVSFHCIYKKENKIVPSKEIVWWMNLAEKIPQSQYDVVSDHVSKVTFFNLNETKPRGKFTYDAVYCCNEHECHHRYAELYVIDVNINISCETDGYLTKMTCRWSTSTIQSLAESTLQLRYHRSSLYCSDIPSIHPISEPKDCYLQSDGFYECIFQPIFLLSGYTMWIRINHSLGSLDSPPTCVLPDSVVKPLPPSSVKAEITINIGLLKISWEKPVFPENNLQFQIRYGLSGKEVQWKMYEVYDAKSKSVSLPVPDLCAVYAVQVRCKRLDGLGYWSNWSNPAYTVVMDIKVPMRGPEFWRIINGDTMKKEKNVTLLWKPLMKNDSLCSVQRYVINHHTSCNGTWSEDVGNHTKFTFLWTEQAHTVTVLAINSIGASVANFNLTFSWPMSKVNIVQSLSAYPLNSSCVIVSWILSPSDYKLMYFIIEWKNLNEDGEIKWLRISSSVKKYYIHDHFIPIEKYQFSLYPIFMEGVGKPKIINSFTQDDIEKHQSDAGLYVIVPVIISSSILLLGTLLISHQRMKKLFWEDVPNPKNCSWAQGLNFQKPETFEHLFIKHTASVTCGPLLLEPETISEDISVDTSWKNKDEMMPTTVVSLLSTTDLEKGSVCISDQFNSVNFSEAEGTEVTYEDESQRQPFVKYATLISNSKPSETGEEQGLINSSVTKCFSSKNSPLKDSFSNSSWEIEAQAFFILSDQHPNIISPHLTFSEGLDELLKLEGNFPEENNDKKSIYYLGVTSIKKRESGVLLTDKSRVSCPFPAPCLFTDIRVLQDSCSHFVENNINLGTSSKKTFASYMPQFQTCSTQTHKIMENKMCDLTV

[3] = target: T1, Mycx2-hLepR(ecto)-GPI anchored, on …; test: FACS, 10 nM Ab, HEK293/hLEPR-GPI, no added Leptin
Protocol: (§1) For the FACS analysis, HEK293 parental cells and HEK293/hLEPR-GPI cells were dissociated and plated onto 96-well v-bottom plates at 5×10⁵ cells/well in PBS containing 2% FBS (FACS buffer). […] Cells were subsequently fixed using BD CytoFix™ (Becton Dickinson, #554655), filtered, and analyzed on a HyperCyt Flow Cytometer (Beckman Coulter). Unstained and secondary antibody alone controls were also tested for all cell lines. The results were analyzed using ForeCyt (IntelliCyt) and FlowJo version 10 software to determine the geometric means of fluorescence for viable cells. The geometric mean of fluorescence for each sample was then normalized to the geometric mean of unstained cells to obtain relative binding per condition referred to as “binding ratios”, and these binding ratios were recorded for each antibody tested.

[4] = target: T1, Mycx2-hLepR(ecto)-GPI anchored, on …; test: FACS, 10 nM Ab, HEK293/hLEPR-GPI, 1 uM Leptin
Protocol: as §1

[5] = target: T3, human LEPR extracellular domain expressed with a C-terminal myc-myc-hexahistidine tag (hLEPR.mmh) (human, UniProt P48357 22-839); test: SPR, mAb over preformed hLEPR-MMH:human Leptin complex
T3 construct: also called human LEPR-MMH; monomeric human LEPR
Protocol: The entire study was performed in 10 mM HEPES pH 7.4, 150 mM NaCl, 3 mM EDTA, and 0.05% v/v Surfactant Tween-20 (HBS-ET running buffer) at 25° C.

[6] = target: T4, human LEPR CRH1 (D1,D2,D3)-MMH (human, UniProt P48357 22-427); test: Luminex, myc-captured LEPR protein
T4 construct: domain: CRH1-Ig (D1,D2,D3); Limits on human LEPR cannot be told from the printed numbers; also called CRH1-Ig (D1, D2, D3); not shown: C-terminal myc-myc hexahistidine tag (amino acids 279-306 of the construct)
T4 sequence (looked up): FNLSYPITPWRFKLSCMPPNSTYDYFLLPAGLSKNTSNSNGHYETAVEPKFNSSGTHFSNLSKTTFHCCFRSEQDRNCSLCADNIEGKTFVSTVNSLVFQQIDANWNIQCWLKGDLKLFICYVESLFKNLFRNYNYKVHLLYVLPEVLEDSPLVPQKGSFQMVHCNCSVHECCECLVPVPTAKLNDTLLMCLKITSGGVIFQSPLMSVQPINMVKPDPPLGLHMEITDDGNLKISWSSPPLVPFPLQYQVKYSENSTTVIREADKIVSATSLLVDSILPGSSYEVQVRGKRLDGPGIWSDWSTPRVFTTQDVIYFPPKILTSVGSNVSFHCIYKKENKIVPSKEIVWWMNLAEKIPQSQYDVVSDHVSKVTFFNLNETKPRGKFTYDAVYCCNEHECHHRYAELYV
Protocol: Aliquots of microspheres with immobilized anti-myc monoclonal antibodies, prepared as described above, were added individually to 1 mL of the each of these protein supernatants. The microspheres were gently mixed, incubated for two hours at 25° C., washed twice with 1 mL of DBPS, centrifuged to remove the supernatant and finally resuspended in 1 mL of DPBS buffer.
From this mixed pool, 75 μL of microspheres were plated per well on a 96 well filter plate (Millipore, Cat. No: MSBVN1250) and mixed with 25 μL of individual anti-human LEPR monoclonal antibodies (0.5 or 5 μg/mL), incubated for two hours at 25° C. and then washed twice with 200 μL of DPBS with 0.05% Tween 20 (washing buffer). […] The Median Fluorescence intensity (MFI) of the microspheres was measured in a Luminex Analyzer.

B1: H4H16679P2 (antibody, human IgG4, V domains shown)
VH: QVQLVESGGGVVQPGRSLRLSCTASGFTFSSYAMYWVRQAPGKGLEWVSVIYYDGSYKYYADSVKGRFTISRDNSKNTLYLQMDSLRAEDTAVYYCASYNWNYWYFDFWGRGTLVTVSS
VL: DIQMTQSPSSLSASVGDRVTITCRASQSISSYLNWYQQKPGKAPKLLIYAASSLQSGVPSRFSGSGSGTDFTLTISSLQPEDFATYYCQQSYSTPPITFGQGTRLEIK
notes: human IgG4 Fc; Classed as agonist
- Binding Ratio [1]: 1080 fold
- Binding Ratio [2]: 51 fold
- Binding Ratio [3]: 2060 fold
- Binding Ratio [4]: 2220 fold
- 200 nM mAb Bound (RU) [5]: 90 RU

B2: H4H17321P2 (antibody, human IgG4, V domains shown)
VH: QVQLVESGGGVVQPGRSLRLSCEASGFSSSDNAMYWVRQAPGKGLEWVSVIYHDGSYKYYEDSVKGRFTIARDNSKNTLYLQMNSLRAEDTAVYYCARYNWNHWYFDVWGRGTLVTVSS
VL: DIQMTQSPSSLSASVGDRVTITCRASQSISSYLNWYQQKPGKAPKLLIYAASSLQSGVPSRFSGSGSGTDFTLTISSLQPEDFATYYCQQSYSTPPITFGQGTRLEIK
notes: as for B1
- Binding Ratio [1]: 1130 fold
- Binding Ratio [2]: 46 fold

B3: H4H16650P2 (antibody, human IgG4, V domains shown)
VH: QVQLVESGGGVVQPGKSLRLSCVASGFTFSSDAMYWVRQAPGKGLEWVAVIYYDGNYQYYEDSVKGRFTISRDNSQNTLDLQMNSLRVDDTAVYFCARLNWDYWYLDLWGRGTLVTVSS
VL: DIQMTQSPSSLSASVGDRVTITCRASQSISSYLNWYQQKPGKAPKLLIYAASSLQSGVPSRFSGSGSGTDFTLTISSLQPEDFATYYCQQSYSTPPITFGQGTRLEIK
notes: H4H prefix means human IgG4 Fc; Classed as agonist
- Binding Ratio [1]: 707 fold
- Binding Ratio [2]: 42 fold
- Binding Ratio [3]: 2420 fold
- Binding Ratio [4]: 3120 fold
- 200 nM mAb Bound (RU) [5]: 81 RU

B5: H4H17319P2 (antibody, human IgG4, V domains shown)
VH: QVQLVESGGSVVQPGRSLRLSCAASGFTFSTYAMYWVRQTPGKGLEWVAVLYSDGSNKYYIDSVKGRFTISRDTSTNTLYLQMSSLRADDSALYYCARLNWDYWYFDLWGRGTLVTVSS
VL: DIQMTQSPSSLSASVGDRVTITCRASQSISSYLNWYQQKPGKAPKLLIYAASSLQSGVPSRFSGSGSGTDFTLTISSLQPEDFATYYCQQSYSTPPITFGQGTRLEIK
notes: as for B1
- Binding Ratio [1]: 1130 fold
- Binding Ratio [2]: 47 fold
- 200 nM mAb Bound (RU) [5]: 92 RU

Next, values leading:

- Binding Ratio [3]: 1490 fold
- Binding Ratio [4]: 2410 fold
B4: H4H18438P2 (antibody, human IgG4, V domains shown)
VH: QVQLVESGGGVVQPGRSLRLSCAASGFSFNTYGMHWVRQAPGKGLEWVTIIWYDGSIKYYADSVKGRFTISRDNSKNTLYLQMNSLRAEDTAVYYCARGGYSGYLYFDYWGQGTLVTVSS
VL: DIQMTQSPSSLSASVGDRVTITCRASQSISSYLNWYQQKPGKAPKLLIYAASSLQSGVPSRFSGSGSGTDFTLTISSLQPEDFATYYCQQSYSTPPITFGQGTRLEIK
notes: human IgG4 Fc; Classed as potentiator

- Binding Ratio [3]: 2020 fold
- Binding Ratio [4]: 2490 fold
B6: H4H18445P2 (antibody, human IgG4, V domains shown)
VH: QVQLQESGPGLVKPSQTLSLTCTVSGGSISSGGDYWSWIRQLPGKGLEWIGYIYYSGSAYYNPSLKSRGTISIDTSKNQFSLKLTSVTAADTAVYFCVKLRFLEWFLGGWFGPWGQGTLVTVSS
VL: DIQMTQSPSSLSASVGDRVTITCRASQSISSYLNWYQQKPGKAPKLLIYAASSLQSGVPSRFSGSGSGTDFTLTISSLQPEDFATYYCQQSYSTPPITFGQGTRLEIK
notes: human IgG4 Fc

- Luminex MFI [6]: 205 MFI
B7: H4H18446P2 (antibody, human IgG4, V domains shown)
VH: EVQLVESGGGLVQPGGSLRLSCAASGFTFSNYGMTWVRQAPGKGLEWVSAITGGGGSTYYSNSVKGRFTISRDNSKNTVYLRMNSVRAEDTAVYYCAKYKWNFVDDWGQGTTVTVSS
VL: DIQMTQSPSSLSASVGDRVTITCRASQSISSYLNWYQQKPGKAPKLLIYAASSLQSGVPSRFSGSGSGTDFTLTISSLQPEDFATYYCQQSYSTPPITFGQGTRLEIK
notes: human IgG4 Fc

- Binding Ratio [3]: 3370 fold
- Binding Ratio [4]: 3110 fold
B8: H4H18449P2 (antibody, human IgG4, V domains shown)
VH: EVQLVESGGGLVQPGGSLRLSCVASGFTFNKYDMHWVRQTTGKGLEWVSGIDTDGDTYYPGSVKGRFTISRENAENSLYLQMNGLRVGDTAVYYCARWPWSGFYGAFDIWGQGTMVTVSS
VL: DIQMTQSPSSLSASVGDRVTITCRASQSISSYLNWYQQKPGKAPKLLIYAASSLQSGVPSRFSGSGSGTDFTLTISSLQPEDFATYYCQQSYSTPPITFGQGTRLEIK
notes: human IgG4 Fc; summary lists 74/66

- Binding Ratio [3]: 1840 fold
- Binding Ratio [4]: 2600 fold
B9: H4H18417P2 (antibody, human IgG4, V domains shown)
VH: QVQLVESGGGVVQPGRSLRLSCAASGFTFSTYGMHWVRQAPGKGLEWVSVISYDESNKYYADSVKGRFTISRDNSKNALYLQMNSLRNEDTAVYYCARDRPFGLVTGWFDPWGQGTLVTVSS
VL: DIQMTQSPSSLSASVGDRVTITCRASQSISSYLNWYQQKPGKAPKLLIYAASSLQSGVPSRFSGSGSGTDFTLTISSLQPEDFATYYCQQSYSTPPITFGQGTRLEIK
notes: as for B4

Reference: US20170101477A1 (Regeneron, published 2017)
